Reference: US20210206861A1 (SUNSHINE GUOJIAN PHARMACEUTICAL SHANGHAI, published 2021)

Experiments:
human IL-4R = human IL-4R (human, UniProt P24394 26-825); assay: cell-based or functional assay
IL-4R-ECD-FLAG [1] = target: T1, IL-4R-ECD-FLAG (human, UniProt P24394 26-232); assay: ELISA on coated IL-4R-ECD-FLAG (100 ng/ml), HRP goat anti-human secondary
T1 construct: Expressed in HEK293, purified on an anti-FLAG column; also called IL-4R antigen; human IL-4R; not shown: FLAG tag added to the end of the IL-4R-ECD coding region

IL-4R-ECD-FLAG [2] = target: T1, IL-4R-ECD-FLAG; assay: SPR, Biacore T200; antibody captured on Protein A/G CM5 chip, IL-4R-ECD-FLAG injected
Description: Next cycle was repeated after eluting the chip with 6M guanidine hydrochloride regeneration buffer. The data was analyzed using Biacore T200 Evaluation Software.

Biotinated IL-4R-ECD-hFc = target: T2, Biotinated IL-4R-ECD-hFc (human, UniProt P24394 26-232, biotinylated with Biotin N-hydroxysuccinimide ester (sites not given)); assay: blocking ELISA: coated IL-4-hFc (2000 ng/ml), biotinylated IL-4R-ECD-hFc (100 ng/ml) with antibody in dilution series, Streptavidin-HRP
T2 construct: also called biotinylated IL-4R-ECD-hFc; not shown: hFc (IgG1) tag
Description: The plate was washed with phosphate buffer containing 0.05% Tween-20 (PBST) and blocked by adding PBST containing 1% bovine serum albumin to each well. Then the plate was washed with PBST. […] The plate was washed with PBST. Streptavidin-HRP which was diluted with PBST containing 1% BSA at a dilution ratio of 1:1000 was added at 100 μl/well and incubated at 37° C. for 30 min. Chromogenic solution (TMB substrate solution) was added at 100 μl/well, and incubated at room temperature for 1˜5 min; then 50 μl/well of the stop solution was added to stop the color reaction. OD450 values were read with a microplate reader and GraphPad Prism6 was used to analyze data, prepare graphs, and calculate IC50.

IC50 of inhibition of IL-4-induced TF-1 cell proliferation (human IL-4R) [µg/mL] | IC50 of inhibition of IL-13-induced TF-1 cell proliferation (human IL-4R) [µg/mL] | EC50 (IL-4R-ECD-FLAG [1]) [µg/mL] | IC50 of inhibition of IL-4-induced CD23 expression by PBMC, first experiment (human IL-4R) [µg/mL] | IC50 of inhibition of IL-4-induced CD23 expression by PBMC, second experiment (human IL-4R) [µg/mL] | IC50 of inhibition of IL-4-induced IgE secretion by PBMC, first experiment (human IL-4R) [µg/mL] | IC50 of inhibition of IL-4-induced IgE secretion by PBMC, second experiment (human IL-4R) [µg/mL] | IC50 of inhibition of IL-4-induced TF-1 cell proliferation, first experiment (human IL-4R) [µg/mL] | IC50 of inhibition of IL-4-induced TF-1 cell proliferation, second experiment (human IL-4R) [µg/mL] | IC50 of inhibition of IL-4-induced TF-1 cell proliferation, third experiment (human IL-4R) [µg/mL] | Kd (IL-4R-ECD-FLAG [2]) [nM] | koff (IL-4R-ECD-FLAG [2]) [s⁻¹] | kon (IL-4R-ECD-FLAG [2]) [M⁻¹ s⁻¹] | IC50 (Biotinated IL-4R-ECD-hFc) [µg/mL] | Binder
2.78 |  |  | 0.232 | 0.034 | 1.95 | 0.413 | 1.29 | 1.11 | 1.15 | 0.692 | 0.00013 | 188000 | 0.14 | 4-2-Humanized-IgG4 (antibody, also called 4-2-Hu-IgG4) heavy: not shown light: DIQMTQSPSSLSASVGDRVTITCRASSSINYMHWYQQKPGKAPKPWIYAASNLASGVPSRFSGSGSGTDFTLTISSLQPEDFATYYCQQWSSYPITFGQGTKVEIKRTVAAPSVFIFPPSDEQLKSGTASVVCLLNNFYPREAKVQWKVDNALQSGNSQESVTEQDSKDSTYSLSSTLTLSKADYEKHKVYACEVTHQGLSSPVTKSFNRGEC
 | 0.0738 |  | 0.0909 | 0.0206 | 0.996 | 0.189 | 0.842 | 0.616 | 0.687 |  |  |  |  | Dupilumab (antibody, V domains shown) VH: EVQLVESGGGLEQPGGSLRLSCAGSGFTFRDYAMTWVRQAPGKGLEWVSSISGSGGNTYYADSVKGRFTISRDNSKNTLYLQMNSLRAEDTAVYYCAKDRLSITIRPRYYGLDVWGQGTTVTVSS VL: DIVMTQSPLSLPVTPGEPASISCRSSQSLLYSIGYNYLDWYLQKSGQSPQLLIYLGSNRASGVPDRFSGSGSGTDFTLKISRVEAEDVGFYYCMQALQTPYTFGQGTKLEIKR

The next lines start with the binder.

Binder | IC50 of inhibition of IL-4-induced TF-1 cell proliferation (human IL-4R) [µg/mL] | IC50 of inhibition of IL-13-induced TF-1 cell proliferation (human IL-4R) [µg/mL] | EC50 (IL-4R-ECD-FLAG [1]) [µg/mL] | IC50 of inhibition of IL-4-induced CD23 expression by PBMC, first experiment (human IL-4R) [µg/mL] | IC50 of inhibition of IL-4-induced CD23 expression by PBMC, second experiment (human IL-4R) [µg/mL] | IC50 of inhibition of IL-4-induced IgE secretion by PBMC, first experiment (human IL-4R) [µg/mL] | IC50 of inhibition of IL-4-induced IgE secretion by PBMC, second experiment (human IL-4R) [µg/mL] | IC50 of inhibition of IL-4-induced TF-1 cell proliferation, first experiment (human IL-4R) [µg/mL] | IC50 of inhibition of IL-4-induced TF-1 cell proliferation, second experiment (human IL-4R) [µg/mL] | IC50 of inhibition of IL-4-induced TF-1 cell proliferation, third experiment (human IL-4R) [µg/mL] | Kd (IL-4R-ECD-FLAG [2]) [nM] | koff (IL-4R-ECD-FLAG [2]) [s⁻¹] | kon (IL-4R-ECD-FLAG [2]) [M⁻¹ s⁻¹] | IC50 (Biotinated IL-4R-ECD-hFc) [µg/mL]
4-2-Chimeric-IgG1 (antibody, V domains shown, also called chimeric antibody 4-2-Chimeric-IgG1) VH: QVQLQQSGPELVKPGASVKISCTASGSTLTDDYINWVKQRPGRGLEWVGWIFPGNGNSYYNEKFKDKATLIVDKSSSTAYMLLSSLTSEDSAVYFCARGLVRYRALFDYWGQGTTLTVSS VL: QIVLSQSPAILSASPGEKVTMTCRASSSINYMHWYQQKPGSSPKPWIYAASNLASGVPARFSGSGSGTSFSLTISRVEAEDAATYYCQQWSSYPITFGSGTKLEIK | 0.225 | 0.0816 | 0.0118 |  |  |  |  |  |  |  |  |  |  | 
4-2-Humanized-IgG1 (antibody, expressed in HEK293E; also called humanized antibody 4-2-Humanized-IgG1) heavy: not shown light: DIQMTQSPSSLSASVGDRVTITCRASSSINYMHWYQQKPGKAPKPWIYAASNLASGVPSRFSGSGSGTDFTLTISSLQPEDFATYYCQQWSSYPITFGQGTKVEIKRTVAAPSVFIFPPSDEQLKSGTASVVCLLNNFYPREAKVQWKVDNALQSGNSQESVTEQDSKDSTYSLSSTLTLSKADYEKHKVYACEVTHQGLSSPVTKSFNRGEC |  | 0.0343 | 0.0124 | 0.0294 | 0.00356 | 0.448 | 0.0613 | 0.561 | 0.427 | 0.52 | 0.717 | 0.000133 | 186000 | 0.138
4-2-Humanized-IgG1-SELF (antibody, also called SELF mutant of anti-human IL-4R humanized antibody) heavy: not shown light: DIQMTQSPSSLSASVGDRVTITCRASSSINYMHWYQQKPGKAPKPWIYAASNLASGVPSRFSGSGSGTDFTLTISSLQPEDFATYYCQQWSSYPITFGQGTKVEIKRTVAAPSVFIFPPSDEQLKSGTASVVCLLNNFYPREAKVQWKVDNALQSGNSQESVTEQDSKDSTYSLSSTLTLSKADYEKHKVYACEVTHQGLSSPVTKSFNRGEC | 0.292 |  |  | 0.0074 | 0.00049 | 0.0508 | 0.0266 |  |  |  |  |  |  | 0.144
